From article PMC5173032

Target: human coagulation factor XII (purchased, not His-tagged) (human)

- FXII activation relative to hPEPD, chromogenic assay (mutant 40 and 400 nM, FXII 0.97 nM, ZnCl2-containing PBS, RT): 50%
B1: 1M-265Rdel-hPEPD (domain or fragment)
chain: TIQNGDMCLFDMGGEYYCFASDITCSFPANGKFTADQKAVYEAVLRSSRAVMGAMKPGVWWPDMHRLADRIHLEELAHMGILSGSVDAMVQAHLGAVFMPHGLGHFLGIDVHDVGGYPEGVERIDEPGLRSLRTARHLQPGMVLTVEPGIYFIDHLLDEALADPARASFLNREVLQRFRGFGGVRIEEDVVVTDSGIELLTCVPRTVEEIEACMAGCDKAFTPFSGPK
